Measured values reported in article PMC3889205 (FEBS letters, 2013).
Like-named read-outs stand apart in the source and are kept apart here.

Key:
Assay in all cases: FRET or BRET
[1] = target: T1, Cy3-labeled β-galactosidase (UniProt P00722 1-1024 = β-galactosidase, Cy3 fluorophore label (site not stated))
[2] = target: T2, Cy3-labeled recombinant rat hepatocyte nuclear factor 4α (rat, UniProt P22449 1-474, Cy3 fluorophore label (site not stated))
T2 sequence (looked up): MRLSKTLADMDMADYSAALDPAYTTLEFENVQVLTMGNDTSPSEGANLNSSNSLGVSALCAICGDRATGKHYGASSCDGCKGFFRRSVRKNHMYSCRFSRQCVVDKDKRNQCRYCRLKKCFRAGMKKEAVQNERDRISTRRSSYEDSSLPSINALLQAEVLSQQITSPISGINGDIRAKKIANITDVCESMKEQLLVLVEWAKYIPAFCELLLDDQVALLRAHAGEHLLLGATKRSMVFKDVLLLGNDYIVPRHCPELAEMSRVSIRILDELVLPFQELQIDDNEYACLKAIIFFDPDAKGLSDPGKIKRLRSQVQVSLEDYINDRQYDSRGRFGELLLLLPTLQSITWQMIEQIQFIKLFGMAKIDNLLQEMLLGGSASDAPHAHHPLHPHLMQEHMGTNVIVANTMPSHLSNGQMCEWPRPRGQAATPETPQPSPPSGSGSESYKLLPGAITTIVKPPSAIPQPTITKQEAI

[3] = target: T1, Cy3-labeled β-galactosidase; remark: listed apart in the source
[4] = target: T2, Cy3-labeled recombinant rat hepatocyte …; remark: listed apart in the source

T1 sequence (P00722 whole entry): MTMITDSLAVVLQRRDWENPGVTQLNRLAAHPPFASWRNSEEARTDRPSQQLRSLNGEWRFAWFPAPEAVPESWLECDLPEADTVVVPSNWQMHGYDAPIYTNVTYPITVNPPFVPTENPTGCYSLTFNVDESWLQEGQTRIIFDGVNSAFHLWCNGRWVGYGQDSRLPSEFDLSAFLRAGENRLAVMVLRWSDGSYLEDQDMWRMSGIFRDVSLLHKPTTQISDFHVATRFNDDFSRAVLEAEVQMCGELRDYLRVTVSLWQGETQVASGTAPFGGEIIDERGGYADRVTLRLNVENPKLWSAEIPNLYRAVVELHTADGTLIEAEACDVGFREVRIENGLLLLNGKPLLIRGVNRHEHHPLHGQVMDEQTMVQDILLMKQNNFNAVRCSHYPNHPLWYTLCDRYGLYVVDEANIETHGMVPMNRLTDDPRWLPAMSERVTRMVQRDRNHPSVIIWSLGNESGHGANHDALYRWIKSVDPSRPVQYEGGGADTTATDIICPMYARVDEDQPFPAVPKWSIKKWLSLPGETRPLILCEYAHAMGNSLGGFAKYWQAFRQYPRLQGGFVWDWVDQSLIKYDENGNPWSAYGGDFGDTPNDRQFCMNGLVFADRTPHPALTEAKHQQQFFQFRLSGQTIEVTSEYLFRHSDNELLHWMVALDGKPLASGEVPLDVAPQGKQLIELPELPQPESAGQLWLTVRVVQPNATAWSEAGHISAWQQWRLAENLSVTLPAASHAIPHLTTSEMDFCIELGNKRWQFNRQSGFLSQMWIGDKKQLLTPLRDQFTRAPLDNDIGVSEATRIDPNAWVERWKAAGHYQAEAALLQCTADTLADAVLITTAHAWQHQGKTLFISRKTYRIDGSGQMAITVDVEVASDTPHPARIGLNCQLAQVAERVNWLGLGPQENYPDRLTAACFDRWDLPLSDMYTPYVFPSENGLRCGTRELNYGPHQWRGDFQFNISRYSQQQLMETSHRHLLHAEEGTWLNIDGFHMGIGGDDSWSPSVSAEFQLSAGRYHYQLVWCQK

B1: Cy5-labeled recombinant rat liver-type fatty acid binding protein (natural protein, UniProt P02692 1-127, looked up)
chain: MNFSGKYQVQSQENFEPFMKAMGLPEDLIQKGKDIKGVSEIVHEGKKVKLTITYGSKVIHNEFTLGEECELETMTGEKVKAVVKMEGDNKMVTTFKGIKSVTEFNGDTITNTMTLGDIVYKRVSKRI
modifications: Cy5 fluorophore label (site not stated)
[1]
  Kd: > 10 µM
[2]
  Kd: 250 nM
[3]
  Kd: > 10 µM
[4]
  Kd: 300 nM
